Test results as given in patent publication US6051217, “Therapeutic uses of interleukin-3 (IL-3) multiple mutation polypeptides” (G. D. Searle & Co., dated 2000).

T1: hIL-3 receptor (human, UniProt P26951)
T1 sequence: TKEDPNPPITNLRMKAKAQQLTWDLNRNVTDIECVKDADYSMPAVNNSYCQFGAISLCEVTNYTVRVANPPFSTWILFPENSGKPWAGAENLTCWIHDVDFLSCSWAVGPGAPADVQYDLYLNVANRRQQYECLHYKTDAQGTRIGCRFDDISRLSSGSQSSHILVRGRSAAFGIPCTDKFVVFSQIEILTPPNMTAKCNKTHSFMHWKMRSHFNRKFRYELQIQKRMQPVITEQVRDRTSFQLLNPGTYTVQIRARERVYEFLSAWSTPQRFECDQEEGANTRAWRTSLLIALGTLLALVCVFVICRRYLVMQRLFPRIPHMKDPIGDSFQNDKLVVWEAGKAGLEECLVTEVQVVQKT


Legend:
[1] = biological target: T1, hIL-3 receptor; test: cell-based or functional assay
[2] = biological target: T1, hIL-3 receptor; test: cell-based or functional assay; remark: listed apart in the source

Row | Relative Biological Activity (AML 193 proliferation) [1] | EC50, AML 193 cell proliferation assay [2] [nM] | Binder
1 | 21.5 EC50 (1-133)hIL-3 / EC50 mutant |  | pMON13446 polypeptide (ligand) MAYPETDYKDDDDKNCSIMIDEIIHHLKRPPAPLLDPNNLNAEDVDILMERNLRLPNLESFVRAVKNLENASGIEAILRNLQPCLPSATAAPSRHPIIIKAGDWQEFREKLTFYLVTLEQAQEQQ
2 | 20 EC50 (1-133)hIL-3 / EC50 mutant |  | pMON13390 polypeptide (ligand) MAYPETDYKDDDDKNCSIMIDEIIHHLKRPPNPLLDPNNLNSEDMDILMERNLRTPNLLAFVRAVKHLENASGIEAILRNLQPCLPSATAAPSRHPIIIKAGDWQEFREKLTFYLVTLEQAQEQQ
3 | 1 EC50 (1-133)hIL-3 / EC50 mutant | 0.0302 | native human interleukin-3, (1-133)hIL-3 (ligand) MAPMTQTTSLKTSWVNCSNMIDEIITHLKQPPLPLLDFNNLNGEDQDILMENNLRRPNLEAFNRAVKSLQNASAIESILKNLLPCLPLATAAPTRHPIHIKDGDWNEFRRKLTFYLKTLENAQAQQTTLSLAIF
4 | 0.003 EC50 (1-133)hIL-3 / EC50 mutant |  | pMON13459 polypeptide (ligand) MANCSIMIDELIHHLKIPPNPSLDSANLNSEDVSILMERNLRTPNLLAFVRAVKHLENASGIEPILSNLQPCVPYWTAPPSRTPITIKAGDWQEFRLKLQFYLSTLEQAQEQQ
5 | 0.008 EC50 (1-133)hIL-3 / EC50 mutant |  | pMON13428 polypeptide (ligand) MANCSIMIDEIIHHLKRPPNPLLDPNNLNSEDMDILMERNLRTPNLLAFVRAVKHLENASGIEPILSNLQPCVPYWTAPPSRTPITIKAGDWQEFRLKLQFYLSTLEQAQEQQ
6 | 0.16 EC50 (1-133)hIL-3 / EC50 mutant |  | pMON13467 polypeptide (ligand) MANCSIMIDELIHHLKIPPNPSLDSANLNSEDVSILMERNLRTPNLLAFVRAVKHLENASGIEAILRNLQPCLPSATAAPSRHPIIIKAGDWQEFRLKLQFYLSSLEQAQEQQ
7 | > 0.0002 EC50 (1-133)hIL-3 / EC50 mutant |  | pMON13429 polypeptide (ligand) MANCSIIIDEIIHHLKRPPNPLLDPNNLNSEDVDILDERNLRTPNLLAFVRAVKHLENASGIEAILRNLQPCLPSATAAPSRHPIIIKAGDWQEFREKLTFYLVTLEQAQEQQ
8 | 0.1 EC50 (1-133)hIL-3 / EC50 mutant |  | pMON13451 polypeptide (ligand) MANCSIILDEAIHHLKIPPNPSLDSANLNSEDVSILMERNLRTPNLLAFVRAVKHLENASGIEPILRNLQPCLPSATAAPSRTPIIIKAGDWQEFREKLTFYLVTLEQAQEQQ
9 | 9 EC50 (1-133)hIL-3 / EC50 mutant |  | pMON13440 polypeptide (ligand) MANCSIMIDEAIHHLKIPPNPSLDSANLNSEDVSILMERNLRTPNLLAFVRAVKHLENASGIEPILRNLQPCLPSATAAPSRTPIIIKAGDWQEFREKLTFYLVTLEQAQEQQ
